Measurements: paper PMC4937327
Where two headings read alike, the source gives them in different places.

How the values were obtained:
[1] = biological target: PtAUREO1a bZIP-A′α-LOV-Jα functional module (residues D145-D378) (Phaeodactylum tricornutum); experiment: SAXS
[2] = biological target: PtAUREO1a bZIP-A′α-LOV-Jα functional module (residues D145-D378) (Phaeodactylum tricornutum); experiment: SEC
[3] = biological target: PtAUREO1a bZIP-A′α-LOV-Jα functional module (residues D145-D378) (Phaeodactylum tricornutum); experiment: SEC; remark: listed apart in the source
[4] = biological target: PtAUREO1a bZIP-A′α-LOV-Jα functional module (residues D145-D378) (Phaeodactylum tricornutum); experiment: MST
[5] = biological target: PtAUREO1c (aureochrome 1c from Phaeodactylum tricornutum), full length (Phaeodactylum tricornutum); experiment: MST
[6] = biological target: PtAUREO1a bZIP-A′α-LOV-Jα functional module (residues D145-D378) (Phaeodactylum tricornutum); experiment: MST; remark: listed apart in the source

Substance	stoichiometry N [1]	stoichiometry N [2]	stoichiometry N [3]	Kd [4] [nM]	Kd [5] [nM]	Kd [6] [nM]
PtAUREO1a bZIP-A′α-LOV-Jα functional module (residues D145-D378) (domain or fragment)	2	2	2	240 to 280	450	–
dsDNA/bZIP-A′α-LOV-Jα complex (PtAUREO1a bZIP-A′α-LOV-Jα dimer bound to dsDNA)	–	–	–	800	–	2600
PtAUREO1a (aureochrome 1a from Phaeodactylum tricornutum), full length (natural protein)	–	–	–	–	240	–
